Data as given in patent US20250136677A1 (ZOETIS SERVICES, published 2025).

Legend:
[1] = biological target: T1, canine IL-31 protein (Canine_IL31) (canine)
T1 chain: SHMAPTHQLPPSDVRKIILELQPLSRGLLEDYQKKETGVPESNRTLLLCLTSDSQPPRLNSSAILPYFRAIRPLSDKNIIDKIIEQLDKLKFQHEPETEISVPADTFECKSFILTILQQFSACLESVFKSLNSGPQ

[2] = biological target: T2, wildtype feline IL-31 protein (Feline_IL31_wildtype) (feline); assay: cell-based or functional assay
T2 chain: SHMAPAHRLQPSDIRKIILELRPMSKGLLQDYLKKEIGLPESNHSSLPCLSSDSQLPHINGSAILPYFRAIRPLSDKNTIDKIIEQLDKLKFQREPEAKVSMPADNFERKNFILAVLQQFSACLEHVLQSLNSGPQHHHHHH

[3] = biological target: T1, canine IL-31 protein (Canine_IL31); assay: SPR (Biacore), IL-31 on chip, 1:1 fit
[4] = biological target: T1, canine IL-31 protein (Canine_IL31); assay: SPR (Biacore), IL-31 protein as surface capture
[5] = biological target: T2, wildtype feline IL-31 protein …; assay: SPR (Biacore), IL-31 on chip, 1:1 fit
Outline: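 IL-31 was amine-coupled (NHS/EDC) to the chip at 5 μg/mL and quenched with ethanolamine, and candidate mAbs were flowed over it as analytes. Binding curves were fitted to a 1:1 model.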

[6] = biological target: T3, human IL-31 (human, UniProt Q6EBC2 24-164); assay: SPR (Biacore), IL-31 surface, single antibody concentration
T3 sequence: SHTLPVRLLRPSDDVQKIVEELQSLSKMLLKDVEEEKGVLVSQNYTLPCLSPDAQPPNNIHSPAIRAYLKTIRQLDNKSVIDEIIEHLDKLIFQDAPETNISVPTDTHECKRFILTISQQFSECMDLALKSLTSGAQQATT

B1: mouse anti IL-31 antibody 15H05 (antibody, mouse IgG1, kappa)
heavy: QVQLQQSAAELARPGASVKMSCKTSGYTFTSYTIHWIKQRPGQGLEWIGNINPTSGYTENNQRFKDKTTLTVDRSSNTAYLQLHSLTSEDSAVYFCARWGFKYDGEWSFDVWGAGTTVTVSSKTTPPSVYPLAPGSAAQTNSMVTLGCLVKGYFPEPVTVTWNSGSLSSGVHTFPAVLESDLYTLSSSVTVPSSPRPSETVTCNVAHPASSTKVDKKIVPRDCGCKPCICTVPEVSSVFIFPPKPKDVLTITLTPKVTCVVVDISKDDPEVQFSWFVDDVEVHTAQTQPREEQFNSTFRSVSELPIMHQDWLNGKEFKCRVNSAAFPAPIEKTISKTKGRPKAPQVYTIPPPKEQMAKDKVSLTCMITDFFPEDITVEWQWNGQPAENYKNTQPIMNTNGSYFVYSKLNVQKSNWEAGNTFTCSVLHEGLHNHHTEKSLSHSPGK
light: DIQMNQSPSSLSASLGDTITVTCRASQGISIWLSWYQQKPGNIPKVLINKASNLHIGVPPRFSGSGSGTHFTLTITSLQPEDIATYYCLQSQTYPLTFGGGTKLEINADAAPTVSIFPPSSEQLTSGGASVVCFLNNFYPKDINVKWKIDGSERQNGVLNSWTDQDSKDSTYSMSSTLTLTKDEYERHNSYTCEATHKTSTSPIVKSFNRNEC
notes: Mouse hybridoma antibody, IgG1 kappa; also called Mu-15H05; MU-15H05
- IC50, inhibition of canine IL-31-induced STAT3 phosphorylation, feline FCWF4 cells [1]: 25.7 µg/mL
- Inhibition of IL-31 induced pSTAT3 IC50 (µg/ml), Feline IL-31 on Feline FCWF-4 cells [2]: 6 µg/ml
- koff [3]: 6.56e-07 s⁻¹
- kon [3]: 135000 M⁻¹ s⁻¹
- Kd [4]: 0.00191 nM
- Kd [5]: 0.348 nM
- koff [5]: 1.69e-05 s⁻¹
- kon [5]: 48400 M⁻¹ s⁻¹
- binding result [6]: no binding
